Results taken from patent publication US20230114801A1 (SYSTIMMUNE, published 2023).

Experiments:
human CD3 [1] = target: T1, human CD3 (human, UniProt P07766 23-126; P04234 22-105); assay: BLI (Octet), binder on AHC sensor, 100 nM human CD3, 1:1 fit
T1 construct: also called His-tagged human CD3; human CD3 (Acro CDD-H52W1)

human EGFR [2] = target: T2, human EGFR (human, UniProt P00533 25-645, limits assumed); assay: BLI (Octet), binder on AHC sensor, 200 nM human EGFR, 1:1 fit
T2 construct: Soluble antigen in Octet; construct not described

human HER3 [3] = target: T3, human HER3 (human, UniProt P21860 20-643); assay: BLI (Octet), binder on AHC sensor, 200 nM human HER3, 1:1 fit
T3 construct: Soluble antigen in Octet; bought; also called human HER3 (Acro ER3-H5223)

human CD3 [4] = target: T1, human CD3; assay: BLI (Octet), binder on AHC sensor, 100 nM human antigen, 1:1 fit
human EGFR [5] = target: T2, human EGFR; assay: as above
human HER3 [6] = target: T3, human HER3; assay: as above
human 4-1BB = target: T4, human 4-1BB (human, UniProt Q07011 24-186, limits assumed); assay: as above
T4 construct: Soluble antigen in Octet; construct not described

B1: SI-75X4 (other)
chain 1: EVQLQESGGGLVQAGDSLSLSCLVSGRSFNSYTMGWFRQAPGKEREFVAAILWSGPTTYYADSVKGRFTISRDNAKNTVYLQMNSLKPEDTAVYYCAAALGVLVLAPGNVYSYWGQGTQVTVSSGGGGSGGGGSEVQLVESGGGLVQPGGSLRLSCAASGFTISTNAMSWVRQAPGKGLEWIGVITGRDITYYASWAKGRFTISRDNSKNTLYLQMSSLRSEDTAVYYCARDGGSSAITSNNIWGQGTLVTVSSASTKGPSVFPLAPSSKSTSGGTAALGCLVKDYFPEPVTVSWNSGALTSGVHTFPAVLQSSGLYSLSSVVTVPSSSLGTQTYICNVNHKPSNTKVDKRVEPKSCDKTHTCPPCPAPEAAGGPSVFLFPPKPKDTLMISRTPEVTCVVVDVSHEDPEVKFNWYVDGVEVHNAKTKPREEQYNSTYRVVSVLTVLHQDWLNGKEYKCAVSNKALPAPIEKTISKAKGQPREPQVYTLPPSRDELTKNQVSLSCAVKGFYPSDIAVEWESNGQPENNYKTTPPVLDSDGSFFLVSKLTVDKSRWQQGNVFSCSVMHEALHNHYTQKSLSLSPG
chain 2: QVQLVQSGGGLVQAGGSLSLSCAFSGRTFSMYTMGWFRQAPGKEREFVAANRGRGLSPDIADSVNGRFTISRDNAKNTLYLQMDSLKPEDTAVYYCAADLQYGSSWPQRSSAEYDYWGQGTTVTVSSGGGGSGGGGSDVVMTQSPSTLSASVGDRVTINCQASESISSWLAWYQQKPGKAPKLLIYEASKLASGVPSRFSGSGSGTEFTLTISSLQPDDFATYYCQGYFYFISRTYVNSFGGGTKVEIKRTVAAPSVFIFPPSDEQLKSGTASVVCLLNNFYPREAKVQWKVDNALQSGNSQESVTEQDSKDSTYSLSSTLTLSKADYEKHKVYACEVTHQGLSSPVTKSFNRGECGGDKTHTCPPCPAPEAAGGPSVFLFPPKPKDTLMISRTPEVTCVVVDVSHEDPEVKFNWYVDGVEVHNAKTKPREEQYNSTYRVVSVLTVLHQDWLNGKEYKCAVSNKALPAPIEKTISKAKGQPREPQVYTLPPSRDELTKNQVSLWCLVKGFYPSDIAVEWESNGQPENNYKTTPPVLDSDGSFFLYSKLTVDKSRWQQGNVFSCSVMHEALHNRFTQKSLSLSPG
notes: tri-miniGNC; D1 αEGFR VHH, D2 αHER3 VHH, D3 αCD3 (Fab)
Binder B1 has a Kd (human CD3 [1]) of 26.3 nM, a Kd (human EGFR [2]) of 51.5 nM and a Kd (human HER3 [3]) of 7.68 nM.

B2: SI-75E1 (other)
chain 1: EIVLTQSPSTLSVSPGERATFSCRASQSIGTNIHWYQQKPGKPPRLLIKYASESISGIPDRFSGSGSGTEFTLTISSVQSEDFAVYYCQQNNNWPTTFGPGTKLTVLGGGGSGGGGSGGGGSGGGGSQVQLQQSGPGLVKPSETLSITCTVSGFSLTNYGVHWIRQAPGKGLEWLGVIWSGGNTDYNTPFTSRFTITKDNSKNQVYFKLRSVRADDTAIYYCARALTYYDYEFAYWGQGTLVTVSSGGGGSGGGGSEVQLVESGGGLVQPGGSLRLSCAASGFTISTNAMSWVRQAPGKGLEWIGVITGRDITYYASWAKGRFTISRDNSKNTLYLQMNSLRAEDTAVYYCARDGGSSAITSNNIWGQGTLVTVSSASTKGPSVFPLAPSSKSTSGGTAALGCLVKDYFPEPVTVSWNSGALTSGVHTFPAVLQSSGLYSLSSVVTVPSSSLGTQTYICNVNHKPSNTKVDKRVEPKSCDKTHTCPPCPAPEAAGGPSVFLFPPKPKDTLMISRTPEVTCVVVDVSHEDPEVKFNWYVDGVEVHNAKTKPREEQYNSTYRVVSVLTVLHQDWLNGKEYKCAVSNKALPAPIEKTISKAKGQPREPQVYTLPPSRDELTKNQVSLSCAVKGFYPSDIAVEWESNGQPENNYKTTPPVLDSDGSFFLVSKLTVDKSRWQQGNVFSCSVMHEALHNHYTQKSLSLSPGGGGGSGGGGSDVVMTQSPSSVSASVGDRVTITCQASQNIRTYLSWYQQKPGKAPKLLIYAAANLASGVPSRFSGSGSGTDFTLTISDLEPGDAATYYCQSTYLGTDYVGGAFGGGTKLTVLGGGGSGGGGSGGGGSGGGGSEVQLVESGGGLVQPGGSLRLSCTASGFTISSYHMQWVRQAPGKGLEYIGTISSGGNVYYASSARGRFTISRPSSKNTVDLQMNSLRAEDTAVYYCARDSGYSDPMWGQGTLVTVSS
chain 2: QSALTQPASVSGSPGQSITISCTGTSSDVGGYNFVSWYQQHPGKAPKLMIYDVSDRPSGVSDRFSGSKSGNTASLIISGLQADDEADYYCSSYGSSSTHVIFGGGTKVTVLGGGGSGGGGSGGGGSGGGGSQVQLQESGGGLVKPGGSLSLSCAASGFTFSSYWMSWVRQAPGKGLEWVANINRDGSASYYVDSVKGRFTISRDDAKNSLYLQMNSLRAEDTAVYYCARDRGVGYFDLWGRGTLVTVSSGGGGSGGGGSDVVMTQSPSTLSASVGDRVTINCQASESISSWLAWYQQKPGKAPKLLIYEASKLASGVPSRFSGSGSGTEFTLTISSLQPDDFATYYCQGYFYFISRTYVNSFGGGTKVEIKRTVAAPSVFIFPPSDEQLKSGTASVVCLLNNFYPREAKVQWKVDNALQSGNSQESVTEQDSKDSTYSLSSTLTLSKADYEKHKVYACEVTHQGLSSPVTKSFNRGECGGDKTHTCPPCPAPEAAGGPSVFLFPPKPKDTLMISRTPEVTCVVVDVSHEDPEVKFNWYVDGVEVHNAKTKPREEQYNSTYRVVSVLTVLHQDWLNGKEYKCAVSNKALPAPIEKTISKAKGQPREPQVYTLPPSRDELTKNQVSLWCLVKGFYPSDIAVEWESNGQPENNYKTTPPVLDSDGSFFLYSKLTVDKSRWQQGNVFSCSVMHEALHNRFTQKSLSLSPG
notes: tetra-miniGNC; D1 αEGFR, D2 αHER3, D3 αCD3 (Fab), D4 α4-1BB
B2 showed a Kd (human CD3 [4]) of 20.3 nM, a Kd (human EGFR [5]) of 8.9 nM and a Kd (human HER3 [6]) of 185 nM. It also gave a Kd (human 4-1BB) of 17.8 nM.

B3: SI-75X17 (other)
chain 1: EVQLQESGGGLVQAGDSLSLSCLVSGRSFNSYTMGWFRQAPGKEREFVAAILWSGPTTYYADSVKGRFTISRDNAKNTVYLQMNSLKPEDTAVYYCAAALGVLVLAPGNVYSYWGQGTQVTVSSGGGGSGGGGSQVQLQESGGRLVQPGEPLSLTCKTSGIDLSSNAIGWVRQAPGKGLEWIGVIFGSGNTYYASWAKGRFTISRSTSTVYLKMNSLRSEDTAIYYCARGGYSSDIWGQGTLVTVSSASTKGPSVFPLAPSSKSTSGGTAALGCLVKDYFPEPVTVSWNSGALTSGVHTFPAVLQSSGLYSLSSVVTVPSSSLGTQTYICNVNHKPSNTKVDKRVEPKSCDKTHTCPPCPAPEAAGGPSVFLFPPKPKDTLMISRTPEVTCVVVDVSHEDPEVKFNWYVDGVEVHNAKTKPREEQYNSTYRVVSVLTVLHQDWLNGKEYKCAVSNKALPAPIEKTISKAKGQPREPQVYTLPPSRDELTKNQVSLSCAVKGFYPSDIAVEWESNGQPENNYKTTPPVLDSDGSFFLVSKLTVDKSRWQQGNVFSCSVMHEALHNHYTQKSLSLSPG
chain 2: QVQLVQSGGGLVQAGGSLSLSCAFSGRTFSMYTMGWFRQAPGKEREFVAANRGRGLSPDIADSVNGRFTISRDNAKNTLYLQMDSLKPEDTAVYYCAADLQYGSSWPQRSSAEYDYWGQGTTVTVSSGGGGSGGGGSDPQLTQSPSSLSATVGQRVTINCQSSQSVAKNNNLAWFQQKPGKPPKLLIYSASTLAAGVPSRFSGSGSGTQFTLTITRVQSEDFATYYCSARDSGNIQSFGGGTRVEIKRTVAAPSVFIFPPSDEQLKSGTASVVCLLNNFYPREAKVQWKVDNALQSGNSQESVTEQDSKDSTYSLSSTLTLSKADYEKHKVYACEVTHQGLSSPVTKSFNRGECGGDKTHTCPPCPAPEAAGGPSVFLFPPKPKDTLMISRTPEVTCVVVDVSHEDPEVKFNWYVDGVEVHNAKTKPREEQYNSTYRVVSVLTVLHQDWLNGKEYKCAVSNKALPAPIEKTISKAKGQPREPQVYTLPPSRDELTKNQVSLWCLVKGFYPSDIAVEWESNGQPENNYKTTPPVLDSDGSFFLYSKLTVDKSRWQQGNVFSCSVMHEALHNRFTQKSLSLSPG
notes: tri-miniGNC; D1 αEGFR VHH, D2 αHER3 VHH, D3 αCD3* (Fab)
B3 gave a Kd (human CD3 [1]) of 68 nM, a Kd (human EGFR [2]) of 14.8 nM and a Kd (human HER3 [3]) of 4.58 nM.

B4: SI-75X19 (other)
chain 1: QVQLQESGGRLVQPGEPLSLTCKTSGIDLSSNAIGWVRQAPGKGLEWIGVIFGSGNTYYASWAKGRFTISRSTSTVYLKMNSLRSEDTAIYYCARGGYSSDIWGQGTLVTVSSASTKGPSVFPLAPSSKSTSGGTAALGCLVKDYFPEPVTVSWNSGALTSGVHTFPAVLQSSGLYSLSSVVTVPSSSLGTQTYICNVNHKPSNTKVDKRVEPKSCDKTHTCPPCPAPEAAGGPSVFLFPPKPKDTLMISRTPEVTCVVVDVSHEDPEVKFNWYVDGVEVHNAKTKPREEQYNSTYRVVSVLTVLHQDWLNGKEYKCAVSNKALPAPIEKTISKAKGQPREPQVYTLPPSRDELTKNQVSLSCAVKGFYPSDIAVEWESNGQPENNYKTTPPVLDSDGSFFLVSKLTVDKSRWQQGNVFSCSVMHEALHNHYTQKSLSLSPGGGGGSGGGGSEVQLQESGGGLVQAGDSLSLSCLVSGRSFNSYTMGWFRQAPGKEREFVAAILWSGPTTYYADSVKGRFTISRDNAKNTVYLQMNSLKPEDTAVYYCAAALGVLVLAPGNVYSYWGQGTQVTVSS
chain 2: DPQLTQSPSSLSATVGQRVTINCQSSQSVAKNNNLAWFQQKPGKPPKLLIYSASTLAAGVPSRFSGSGSGTQFTLTITRVQSEDFATYYCSARDSGNIQSFGGGTRVEIKRTVAAPSVFIFPPSDEQLKSGTASVVCLLNNFYPREAKVQWKVDNALQSGNSQESVTEQDSKDSTYSLSSTLTLSKADYEKHKVYACEVTHQGLSSPVTKSFNRGECGGDKTHTCPPCPAPEAAGGPSVFLFPPKPKDTLMISRTPEVTCVVVDVSHEDPEVKFNWYVDGVEVHNAKTKPREEQYNSTYRVVSVLTVLHQDWLNGKEYKCAVSNKALPAPIEKTISKAKGQPREPQVYTLPPSRDELTKNQVSLWCLVKGFYPSDIAVEWESNGQPENNYKTTPPVLDSDGSFFLYSKLTVDKSRWQQGNVFSCSVMHEALHNRFTQKSLSLSPGGGGGSGGGGSQVQLVQSGGGLVQAGGSLSLSCAFSGRTFSMYTMGWFRQAPGKEREFVAANRGRGLSPDIADSVNGRFTISRDNAKNTLYLQMDSLKPEDTAVYYCAADLQYGSSWPQRSSAEYDYWGQGTTVTVSS
notes: tri-miniGNC; D3 αCD3* (Fab), D4 αEGFR VHH, D5 αHER3 VHH
With B4 the Kd (human CD3 [1]) was 64.4 nM, the Kd (human EGFR [2]) was 20.6 nM and the Kd (human HER3 [3]) was 10.5 nM.
